Experimental data as given in patent US20240270846A1 (published 2024).

How the values were obtained:
[1] = target: T1, biotin-labeled human CD137 fused to human IgG1 Fc fragment (human, biotin-labeled); test: competitive bead ELISA, decrease of signal on biotin-human CD137-Fc with 125 pmol/well free CD3 epsilon peptide against 0
T1 construct: Immobilised on streptavidin beads through biotin; also called human CD137-Fc; biotin-human CD137-Fc

[2] = target: T1, biotin-labeled human CD137 fused to …; test: competitive bead ELISA, IgG on biotin-human CD137-Fc, competitor free CD3 epsilon peptide 125 pmol/well
[3] = target: T1, biotin-labeled human CD137 fused to …; test: bead ELISA, IgG on biotin-human CD137-Fc on streptavidin beads, no free CD3e
human CD137 = target: T2, human CD137 (human, UniProt Q07011 24-186); test: SPR Biacore T200, IgG captured on protein A, antigen as analyte, 25 C;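 note: antigens flowed over a CM3 chip for 120 s association, KD derived from ka and kd, running buffer (ACES, NaCl, Tween20, pH 7.4) served as blank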
T2 construct: Soluble analyte in the Biacore assay; also called 4-1BB; hCD137

cynomolgus monkey CD137 = target: T3, cynomolgus monkey CD137 (cynomolgus monkey, UniProt Q07011 24-186 (human entry), limits assumed); test: as above
T3 construct: Soluble analyte in the Biacore assay; also called cyno CD137
T3 chain: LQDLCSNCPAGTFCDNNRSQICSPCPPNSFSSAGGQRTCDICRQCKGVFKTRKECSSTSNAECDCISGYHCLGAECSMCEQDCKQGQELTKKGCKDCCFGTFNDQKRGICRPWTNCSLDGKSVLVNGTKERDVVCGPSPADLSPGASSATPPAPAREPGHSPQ

human CD3ed = target: T4, human CD3ed (human, UniProt P07766 23-126; P04234 22-105, limits assumed); test: as above
T4 construct: The construct injected as 'human CD3ed' in the Biacore assay is not defined; also called human CD3 epsilon/delta heterodimer
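Throughout, for ELISA signal, free CD3e 125 pmol/well: bead ELISA on streptavidin-coated magnetic beads, with the signal read as well fluorescence 2 min after APS-5 addition.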

B1: dBBDu139 (antibody, human IgG1, V domains shown)
VH: QVQLVESGGGLVQPGRSLRLSCAASGFTFSNAWMHWVRQAPGKGLEWVAQIKDRGNAYNAYYAESVKGRFTISRDDSKNSIYLQMNSLKTEDTAVYYCRFVHYRHPLLHIQYGVDAWGQGTTVTVSS
VL: DIVMTQSPLSLPVTPGEPASISCRSSQSLVHSNRNTYLHWYQQKPGQAPRLLIYKVSNRFSGVPDRFSGSGSGTDFTLKISRVEAEDVGVYYCGQGTQVPYTFGQGTKLEIK
notes: IgG: VH joined to human IgG1 CH1-Fc, GLS3000 as light chain
- Signal decrease [1]: 79.6%
- ELISA signal, free CD3e 125 pmol/well [2]: 1920
- ELISA signal, free CD3e 0 pmol/well [3]: 9440

B2: dBBDu197 (antibody, human IgG1, V domains shown)
VH: QVQLVESGGGLVQPGRSLRLSCAASGFTFSNAWMHWVRQAPGKGLEWVAQIKDRSNAYAAYYAPSVKGRFTISRDDSKNSIYLQMNSLKTEDTAVYYCHYVHYASASTVLPAFGVDAWGQGTTVTVSS
VL: DIVMTQSPLSLPVTPGEPASISCRSSQSLVHSNRNTYLHWYQQKPGQAPRLLIYKVSNRFSGVPDRFSGSGSGTDFTLKISRVEAEDVGVYYCGQGTQVPYTFGQGTKLEIK
notes: as for B1
- Signal decrease [1]: 96.1%
- ELISA signal, free CD3e 125 pmol/well [2]: 2110
- ELISA signal, free CD3e 0 pmol/well [3]: 54400

B3: dBBDu121 (antibody, human IgG1, V domains shown)
VH: QVQLVESGGGLVQPGRSLRLSCAASGFTFSNAWMHWVRQAPGKGLEWVAQIKDKGNAYAAYYAPSVKGRFTISRDDSKNSIYLQMNSLKTEDTAVYYCHYVHYASAAGGLPGFGVDAWGQGTTVTVSS
VL: DIVMTQSPLSLPVTPGEPASISCRSSQSLVHSNRNTYLHWYQQKPGQAPRLLIYKVSNRFSGVPDRFSGSGSGTDFTLKISRVEAEDVGVYYCGQGTQVPYTFGQGTKLEIK
notes: IgG: VH joined to human IgG1 CH1-Fc, GLS3000 as light chain; also called DXDU01_3_#094; DXDU01_3 #094
- Signal decrease [1]: 49.4%
- ELISA signal, free CD3e 125 pmol/well [2]: 1830
- ELISA signal, free CD3e 0 pmol/well [3]: 3610

B4: dBBDu_186 / dBBDu_L098 (antibody, human IgG1, V domains shown)
VH: QVQLVESGGGLVQPGRSLRLSCAASGFTFSNAWMHWVRQAPGKGLEWVAQIKDRSNQYATYYAPSVKGRFTISRDDSKNSIYLQMNSLKTEDTAVYYCHYVHYAQASTVLPAFGVDAWGQGTTVTVSS
VL: DIVMTQSPLSLPVTPGEPASISCAASEELVHINRYIFLHWYQQKPGQAPRLLIYKVSNRFIGVPDRFSGSGSGTDFTLKISRVEAEDVGVYYCAQGSQVPFTFGQGTKLEIK
notes: Tested as IgG (human IgG1 constant region, kappa light chain); also called dBBDu186/L098
- Kd (human CD137): 2.31 µM
- koff (human CD137): 0.000534 s⁻¹
- kon (human CD137): 231 M⁻¹ s⁻¹
- Kd (cynomolgus monkey CD137): 134 µM
- koff (cynomolgus monkey CD137): 0.00119 s⁻¹
- Kd (human CD3ed): 1.88 µM
- koff (human CD3ed): 0.0209 s⁻¹
- kon (human CD3ed): 11100 M⁻¹ s⁻¹

B5: dBBDu_189 / dBBDu_L126 (antibody, human IgG1, V domains shown)
VH: QVQLVESGGGLVQPGRSLRLSCAASGFTFSNAWMHWVRQAPGKGLEWIAQIKDRSNQYATYYAPSVKGRFTISRDDSKNSIYLQMNSLKTEDTAVYYCHYVHYAQASSLLPSFGVDAWGQGTTVTVSS
VL: DIVMTQSPLSLPVTPGEPASISCRTSEELLHINRYIFLHWYQQKPGQAPRLLIYKVQNRFSGVPDRFSGSGSGTDFTLKISRVEAEDVGVYYCAQGSAVPFTFGQGTKLEIK
notes: Tested as IgG (human IgG1 constant region, kappa light chain); also called dBBDu189/L126
- Kd (human CD137): 0.513 µM
- koff (human CD137): 0.000688 s⁻¹
- kon (human CD137): 1340 M⁻¹ s⁻¹
- Kd (cynomolgus monkey CD137): 3.06 µM
- koff (cynomolgus monkey CD137): 0.00247 s⁻¹
- kon (cynomolgus monkey CD137): 807 M⁻¹ s⁻¹
- Kd (human CD3ed): 2.57 µM
- koff (human CD3ed): 0.0281 s⁻¹
- kon (human CD3ed): 10900 M⁻¹ s⁻¹

B6: dBBDu_186 / dBBDu_L100 (antibody, human IgG1, V domains shown)
VH: QVQLVESGGGLVQPGRSLRLSCAASGFTFSNAWMHWVRQAPGKGLEWVAQIKDRSNQYATYYAPSVKGRFTISRDDSKNSIYLQMNSLKTEDTAVYYCHYVHYAQASTVLPAFGVDAWGQGTTVTVSS
VL: DIVMTQSPLSLPVTPGEPASISCSASEELVHINRYIFLHWYQQKPGQAPRLLIYKVYNRFMGVPDRFSGSGSGTDFTLKISRVEAEDVGVYYCGQGSSVPFTFGQGTKLEIK
notes: Tested as IgG (human IgG1 constant region, kappa light chain); also called dBBDu186/L100
- Kd (human CD137): 1.91 µM
- koff (human CD137): 0.000746 s⁻¹
- kon (human CD137): 391 M⁻¹ s⁻¹
- Kd (cynomolgus monkey CD137): 70.4 µM
- koff (cynomolgus monkey CD137): 0.00208 s⁻¹
- Kd (human CD3ed): 3.36 µM
- koff (human CD3ed): 0.0546 s⁻¹
- kon (human CD3ed): 16200 M⁻¹ s⁻¹

B7: dBBDu_186 / dBBDu_L108 (antibody, human IgG1, V domains shown)
VH: QVQLVESGGGLVQPGRSLRLSCAASGFTFSNAWMHWVRQAPGKGLEWVAQIKDRSNQYATYYAPSVKGRFTISRDDSKNSIYLQMNSLKTEDTAVYYCHYVHYAQASTVLPAFGVDAWGQGTTVTVSS
VL: DIVMTQSPLSLPVTPGEPASISCRTSEELLHINRFTFLHWYQQKPGQAPRLLIYKVSNRFMGVPDRFSGSGSGTDFTLKISRVEAEDVGVYYCAQGSAVPFTFGQGTKLEIK
notes: Tested as IgG (human IgG1 constant region, kappa light chain); also called dBBDu186/L108
- Kd (human CD137): 2.41 µM
- koff (human CD137): 0.00081 s⁻¹
- kon (human CD137): 335 M⁻¹ s⁻¹
- Kd (cynomolgus monkey CD137): 16.1 µM
- koff (cynomolgus monkey CD137): 0.00361 s⁻¹
- kon (cynomolgus monkey CD137): 225 M⁻¹ s⁻¹
- Kd (human CD3ed): 3.01 µM
- koff (human CD3ed): 0.0408 s⁻¹
- kon (human CD3ed): 13600 M⁻¹ s⁻¹

B8: dBBDu_193 / dBBDu.L127 (antibody, human IgG1, V domains shown)
VH: QVQLVESGGGLVQPGRSLRLSCAASGFTFSNAWMHWVRQAPGKGLEWVAQIKDRSNQYATYYAPSVKGRFTISRDDSKNSIYLQMNSLKTEDTAVYYCHYVHYSAASTLLPSFGVDAWGQGTTVTVSS
VL: DIVMTQSPLSLPVTPGEPASISCRASEELLHINRHIFLHWYQQKPGQAPRLLIYKVYNRFTGVPDRFSGSGSGTDFTLKISRVEAEDVGVYYCAQGTSVPFTFGQGTKLEIK
notes: Tested as IgG (human IgG1 constant region, kappa light chain); also called dBBDu193/L127; dBBDu_193/L127
- Kd (human CD137): 3.3 µM
- koff (human CD137): 0.00145 s⁻¹
- kon (human CD137): 440 M⁻¹ s⁻¹
- Kd (cynomolgus monkey CD137): 28.1 µM
- koff (cynomolgus monkey CD137): 0.00316 s⁻¹
- kon (cynomolgus monkey CD137): 112 M⁻¹ s⁻¹
- Kd (human CD3ed): 1.51 µM
- koff (human CD3ed): 0.0191 s⁻¹
- kon (human CD3ed): 12600 M⁻¹ s⁻¹

B9: dBBDu_186 / dBBDu_L106 (antibody, human IgG1, V domains shown)
VH: QVQLVESGGGLVQPGRSLRLSCAASGFTFSNAWMHWVRQAPGKGLEWVAQIKDRSNQYATYYAPSVKGRFTISRDDSKNSIYLQMNSLKTEDTAVYYCHYVHYAQASTVLPAFGVDAWGQGTTVTVSS
VL: DIVMTQSPLSLPVTPGEPASISCSTSEELLHINRFIFLHWYQQKPGQAPRLLIYKVANRFMGVPDRFSGSGSGTDFTLKISRVEAEDVGVYYCAQGSQVPFTFGQGTKLEIK
notes: Tested as IgG (human IgG1 constant region, kappa light chain); also called dBBDu186/L106
- Kd (human CD137): 3.44 µM
- koff (human CD137): 0.000447 s⁻¹
- kon (human CD137): 130 M⁻¹ s⁻¹
- Kd (cynomolgus monkey CD137): 61.3 µM
- koff (cynomolgus monkey CD137): 0.00126 s⁻¹
- Kd (human CD3ed): 3.09 µM
- koff (human CD3ed): 0.0318 s⁻¹
- kon (human CD3ed): 10300 M⁻¹ s⁻¹

B10: dBBDu_167 / dBBDu.L094 (antibody, human IgG1, V domains shown)
VH: QVQLVESGGGLVQPGRSLRLSCAASGFTFSNAWMHWVRQAPGKGLEWVAQIKDKGNLYAAYYAPSVKGRFTISRDDSKNSIYLQMNSLKTEDTAVYYCHYVHYASAGGGLPGFGVDAWGQGTTVTVSS
VL: DIVMTQSPLSLPVTPGEPASISCYASEELLHINRHIYLHWYQQKPGQAPRLLIYKVYNRFNGVPDRFSGSGSGTDFTLKISRVEAEDVGVYYCAQGSSVPFTFGQGTKLEIK
notes: Tested as IgG (human IgG1 constant region, kappa light chain); also called dBBDu167/L094; dBBDu_167/L094
- Kd (human CD137): 8.43 µM
- koff (human CD137): 0.0102 s⁻¹
- kon (human CD137): 1210 M⁻¹ s⁻¹
- Kd (cynomolgus monkey CD137): 6.92 µM
- koff (cynomolgus monkey CD137): 0.0748 s⁻¹
- kon (cynomolgus monkey CD137): 10800 M⁻¹ s⁻¹
- Kd (human CD3ed): 0.349 µM
- koff (human CD3ed): 0.021 s⁻¹
- kon (human CD3ed): 60200 M⁻¹ s⁻¹

B11: dBBDu_193 / dBBDu.L132 (antibody, human IgG1, V domains shown)
VH: QVQLVESGGGLVQPGRSLRLSCAASGFTFSNAWMHWVRQAPGKGLEWVAQIKDRSNQYATYYAPSVKGRFTISRDDSKNSIYLQMNSLKTEDTAVYYCHYVHYSAASTLLPSFGVDAWGQGTTVTVSS
VL: DIVMTQSPLSLPVTPGEPASISCQTSEELVHINRFIFLHWYQQKPGQAPRLLIYKVSNRFSGVPDRFSGSGSGTDFTLKISRVEAEDVGVYYCAQGTSVPFTFGQGTKLEIK
notes: Tested as IgG (human IgG1 constant region, kappa light chain); also called dBBDu193/L132; dBBDu_193/L132
- Kd (human CD137): 4.48 µM
- koff (human CD137): 0.00211 s⁻¹
- kon (human CD137): 471 M⁻¹ s⁻¹
- Kd (cynomolgus monkey CD137): 757 µM
- koff (cynomolgus monkey CD137): 0.0061 s⁻¹
- Kd (human CD3ed): 2.03 µM
- koff (human CD3ed): 0.0201 s⁻¹
- kon (human CD3ed): 9890 M⁻¹ s⁻¹

B12: dBBDu_189 / dBBDu_L119 (antibody, human IgG1, V domains shown)
VH: QVQLVESGGGLVQPGRSLRLSCAASGFTFSNAWMHWVRQAPGKGLEWIAQIKDRSNQYATYYAPSVKGRFTISRDDSKNSIYLQMNSLKTEDTAVYYCHYVHYAQASSLLPSFGVDAWGQGTTVTVSS
VL: DIVMTQSPLSLPVTPGEPASISCTASQELVHINRFIFLHWYQQKPGQAPRLLIYKVSNRFIGVPDRFSGSGSGTDFTLKISRVEAEDVGVYYCAQGSQVPFTFGQGTKLEIK
notes: Tested as IgG (human IgG1 constant region, kappa light chain); also called dBBDu189/L119
- Kd (human CD137): 2.71 µM
- koff (human CD137): 0.000402 s⁻¹
- kon (human CD137): 148 M⁻¹ s⁻¹
- Kd (cynomolgus monkey CD137): 35.7 µM
- koff (cynomolgus monkey CD137): 0.00122 s⁻¹
- Kd (human CD3ed): 2.06 µM
- koff (human CD3ed): 0.0258 s⁻¹
- kon (human CD3ed): 12500 M⁻¹ s⁻¹
